Assay: protein stability index of a GFP-peptide fusion (GPS, HEK-293T) (PSI 1-6); higher = more stable
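Note: lentivirally expressed fusions sorted by FACS into six bins by GFP to DsRed ratio, PSI derived from sequencing read proportions per bin multiplied by bin number.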

B1: GLTSCR2 WT (peptide)
chain: LARRRRRRQARREAEADKPRRLGR
- protein stability index (parent: IOH6410_65, c terminus: a fixed tail appended): 4.75

B2: PDZK1 WT (peptide)
chain: RETASLKLLPHQPRIVEMKKGSNG
- protein stability index (parent: IOH5807_39, c terminus: a fixed tail appended): 3.37

B3: ZNF263 WT (peptide)
chain: RTHTGEKPYKCTLCGENFSHRSNL
- protein stability index (parent: IOH6312_100, c terminus: a fixed tail appended): 2.17

B4: TMEM175 WT (peptide)
chain: SCTIIFLASIFQLAMWTTALLHQA
- protein stability index (parent: IOH5167_64, c terminus: a fixed tail appended): 2.71

B5: TRAF3IP2 WT (peptide)
chain: KQGSMNFRFIPVLFPNAKKEHVPT
- protein stability index (parent: IOH5394_84, c terminus: a fixed tail appended): 1.99

B6: GMCL1 WT (peptide)
chain: FCYCAGSHKRKRSSGSFCYCHPDS
- protein stability index (parent: IOH5876_8, c terminus: a fixed tail appended): 1.91

B7: CDC25A WT (peptide)
chain: TVAGKHQDLKYISPEIMASVLNGK
- protein stability index (parent: IOH5852_59, c terminus: a fixed tail appended): 3.04

B8: S100A14 WT (peptide)
chain: KIANLGSCNDSKLEFRSFWELIGE
- protein stability index (parent: IOH5597_12, c terminus: a fixed tail appended): 2.01

B9: NCF4 WT (peptide)
chain: FGPDSKSSALACTLPTLPAKVYVG
- protein stability index (parent: IOH5398_13, c terminus: a fixed tail appended): 2.21

B10: TRIM39 WT (peptide)
chain: ERDFPCPVCRKTSRYRSLRPNRQL
- protein stability index (parent: IOH5913_11, c terminus: a fixed tail appended): 2.25

B11: TRAF3IP2 WT (peptide)
chain: PGQPLPGASVRGLHPVQKVILNYP
- protein stability index (parent: IOH5394_50, c terminus: a fixed tail appended): 3.05

B12: ZNF263 WT (peptide)
chain: PEASHLRFRRFRFQEAAGPREALS
- protein stability index (parent: IOH6312_7, c terminus: a fixed tail appended): 2.65

B13: TRIM39 WT (peptide)
chain: YPCVLATEGFTSGRHYWEVEVGDK
- protein stability index (parent: IOH5913_59, c terminus: a fixed tail appended): 1.8

B14: TRAF3IP2 WT (peptide)
chain: FMEKRNQWLVSQLSAASPDTGHDS
- protein stability index (parent: IOH5394_23, c terminus: a fixed tail appended): 2.4

B15: KLHL12 WT (peptide)
chain: REESLPNLLQYVRMPLLTPRYITD
- protein stability index (parent: IOH6063_36, c terminus: a fixed tail appended): 2.48

B16: CDC25A WT (peptide)
chain: KKFRTKSRTWAGEKSKREMYSRLK
- protein stability index (parent: IOH5852_84, c terminus: a fixed tail appended): 2.82

B17: CDC25A WT (peptide)
chain: QLIDPDENKENEAFEFKKPVRPVS
- protein stability index (parent: IOH5852_23, c terminus: a fixed tail appended): 3.49

B18: BCL2L13 WT (peptide)
chain: QSLDQEILLKVKTEIEEELKSLDK
- protein stability index (parent: IOH5956_9, c terminus: a fixed tail appended): 4.89

B19: TRAF3IP2 WT (peptide)
chain: KEHVPTWLQNTHVYSWPKNKKNIL
- protein stability index (parent: IOH5394_87, c terminus: a fixed tail appended): 2.59

B20: KRT15 WT (peptide)
chain: SNFHINVEESVDGQVVSSHKREI
- protein stability index (parent: IOH5303_75, c terminus: native): 2.11

B21: KLHL12 WT (peptide)
chain: LDYTADEDGVWYSVAPMNVRRGLA
- protein stability index (parent: IOH6063_59, c terminus: a fixed tail appended): 1.98

B22: ZNF263 WT (peptide)
chain: VPGTQVGQGGKLWDPSVQSCKEGL
- protein stability index (parent: IOH6312_45, c terminus: a fixed tail appended): 4.2

B23: GLTSCR2 WT (peptide)
chain: YNPSFEDHQTLLSAAHEVELQRQK
- protein stability index (parent: IOH6410_42, c terminus: a fixed tail appended): 3.61

B24: ALKBH7 WT (peptide)
chain: SVICRSLPEGMGPGESGQPPPAC
- protein stability index (parent: IOH5568_34, c terminus: native): 1.99

B25: TRAF3IP2 WT (peptide)
chain: APWNYHYHCPGSPDHQVPYGHDYP
- protein stability index (parent: IOH5394_44, c terminus: a fixed tail appended): 1.94

B26: PDZK1 WT (peptide)
chain: FQAKKIPIVSSLADPLDTPPDSKE
- protein stability index (parent: IOH5807_78, c terminus: a fixed tail appended): 3.78

B27: CLPTM1 WT (peptide)
chain: LGCYAVYSLLYLEHKGWYSWVLSM
- protein stability index (parent: IOH5653_82, c terminus: a fixed tail appended): 2.95

B28: ZNF263 WT (peptide)
chain: FGGNPRFLSLHRAHLGEEAHKCLE
- protein stability index (parent: IOH6312_70, c terminus: a fixed tail appended): 1.85

B29: ZNF263 WT (peptide)
chain: KPYKCTLCGENFSHRSNLIRHQRI
- protein stability index (parent: IOH6312_101, c terminus: a fixed tail appended): 2.32

B30: GLTSCR2 WT (peptide)
chain: FQRRNMIEPRERAKFKRKYKVKLV
- protein stability index (parent: IOH6410_75, c terminus: a fixed tail appended): 2.25

B31: ZNF263 WT (peptide)
chain: LLRHQRIHTGERPYKCPECGKSFS
- protein stability index (parent: IOH6312_85, c terminus: a fixed tail appended): 2.03

B32: TRIM39 WT (peptide)
chain: CKACITRWWEDLERDFPCPVCRKT
- protein stability index (parent: IOH5913_9, c terminus: a fixed tail appended): 3.85

B33: UBE2R2 WT (peptide)
chain: DPQSGELPSERWNPTQNVRTILLS
- protein stability index (parent: IOH5652_18, c terminus: a fixed tail appended): 3.45

B34: TMEM175 WT (peptide)
chain: ALLHQAETLQPSVWFGGREHVLMF
- protein stability index (parent: IOH5167_67, c terminus: a fixed tail appended): 2.09

B35: CLPTM1 WT (peptide)
chain: MNLHVYISEHEHFTDFNATSALFW
- protein stability index (parent: IOH5653_18, c terminus: a fixed tail appended): 2.74

B36: BCL2L13 WT (peptide)
chain: MASSSTVPLGFHYETKYVVLSYLG
- protein stability index (parent: IOH5956_1, c terminus: a fixed tail appended): 2.43

B37: BCL2L13 WT (peptide)
chain: YIIQQGGWGTVFSLESEEEEYPGI
- protein stability index (parent: IOH5956_33, c terminus: a fixed tail appended): 1.93

B38: ZNF263 WT (peptide)
chain: HLTRHQRTHTGEKPYKCTLCGENF
- protein stability index (parent: IOH6312_99, c terminus: a fixed tail appended): 2.9

B39: GMCL1 WT (peptide)
chain: RPDTGDDAAGHGFCYCAGSHKRKR
- protein stability index (parent: IOH5876_6, c terminus: a fixed tail appended): 2.92

B40: FAM164C WT (peptide)
chain: YPHCTGISQQDPESDSQGQGNGLF
- protein stability index (parent: IOH5453_15, c terminus: a fixed tail appended): 3.84

B41: CDC25A WT (peptide)
chain: KPIVPTDGKRVIVVFHCEFSSERG
- protein stability index (parent: IOH5852_70, c terminus: a fixed tail appended): 2.59

B42: ZNF263 WT (peptide)
chain: CSECGESFSRSSRLMSHQRTHTG
- protein stability index (parent: IOH6312_114, c terminus: native): 2.98

B43: ZNF263 WT (peptide)
chain: EKPYKCPECGEIFAHSSNLLRHQR
- protein stability index (parent: IOH6312_82, c terminus: a fixed tail appended): 2.43

B44: KLHL12 WT (peptide)
chain: SMTTPRCYVGATVLRGRLYAIAGY
- protein stability index (parent: IOH6063_85, c terminus: a fixed tail appended): 2.41

B45: TMEM175 WT (peptide)
chain: QTSAFARQPRDELERVRVSCTIIF
- protein stability index (parent: IOH5167_61, c terminus: a fixed tail appended): 2.28

B46: ZNF263 WT (peptide)
chain: QPKKLHLCPLCGKNFSNNSNLIRH
- protein stability index (parent: IOH6312_63, c terminus: a fixed tail appended): 2.55

B47: TRAF3IP2 WT (peptide)
chain: YGHDYPRAAYQQVIQPALPGQPLP
- protein stability index (parent: IOH5394_47, c terminus: a fixed tail appended): 1.96

B48: TRAF3IP2 WT (peptide)
chain: PRPPSNPPARGTLKTSNLPEELRK
- protein stability index (parent: IOH5394_64, c terminus: a fixed tail appended): 4.55

B49: ZNF263 WT (peptide)
chain: QRTHTGEKPYKCPECGEIFAHSSN
- protein stability index (parent: IOH6312_81, c terminus: a fixed tail appended): 3.1

B50: NCF4 WT (peptide)
chain: FVKILKDFPEEDDPTNWLRCYYYE
- protein stability index (parent: IOH5398_38, c terminus: a fixed tail appended): 2.09

B51: KRT15 WT (peptide)
chain: FGGGSTRGGSLLAGGGGFGGGSLS
- protein stability index (parent: IOH5303_3, c terminus: a fixed tail appended): 1.81

B52: CLINT1 WT (peptide)
chain: VVTSAREHIYDLRSLENYHFVDEH
- protein stability index (parent: IOH5634_17, c terminus: a fixed tail appended): 2.76

B53: ZNF263 WT (peptide)
chain: FAHSSNLLRHQRIHTGERPYKCPE
- protein stability index (parent: IOH6312_84, c terminus: a fixed tail appended): 2.34
